Results: paper PMC8580825, “Scaffolding protein CcmM directs multiprotein phase separation in β-carboxysome biogenesis” (Nature Structural & Molecular Biology, 2021)

B1: SeM58-K62D (natural protein, Synechococcus elongatus PCC 7942, UniProt Q03513 1-539, looked up)
chain: MPSPTTVPVATAGRLAEPYIDPAAQVHAIASIIGDVRIAAGVRVAAGVSIRADEGAPFQVGDESILQEGAVIHGLEYGRVLGDDQADYSVWIGQRVAITHKALIHGPAYLGDDCFVGFRSTVFNARVGAGSVIMMHALVQDVEIPPGRYVPSGAIITTQQQADRLPEVRPEDREFARHIIGSPPVIVRSTPAATADFHSTPTPSPLRPSSSEATTVSAYNGQGRLSSEVITQVRSLLNQGYRIGTEHADKRRFRTSSWQPCAPIQSTNERQVLSELENCLSEHEGEYVRLLGIDTNTRSRVFEALIQRPDGSVPESLGSQPVAVASGGGRQSSYASVSGNLSAEVVNKVRNLLAQGYRIGTEHADKRRFRTSSWQSCAPIQSSNERQVLAELENCLSEHEGEYVRLLGIDTASRSRVFEALIQDPQGPVGSAKAAAAPVSSATPSSHSYTSNGSSSSDVAGQVRGLLAQGYRISAEVADKRRFQTSSWQSLPALSGQSEATVLPALESILQEHKGKYVRLIGIDPAARRRVAELLIQKP
notes: CcmM (M58), Synechococcus elongatus PCC 7942, point mutant in the γCAL domain; source: E. coli BL21 (DE3), purified as wild-type M58; not shown: His6-ubiquitin, N-terminal, cleaved
B2: SeM58-D112K (natural protein, Synechococcus elongatus PCC 7942, UniProt Q03513 1-539, looked up)
chain: MPSPTTVPVATAGRLAEPYIDPAAQVHAIASIIGDVRIAAGVRVAAGVSIRADEGAPFQVGKESILQEGAVIHGLEYGRVLGDDQADYSVWIGQRVAITHKALIHGPAYLGKDCFVGFRSTVFNARVGAGSVIMMHALVQDVEIPPGRYVPSGAIITTQQQADRLPEVRPEDREFARHIIGSPPVIVRSTPAATADFHSTPTPSPLRPSSSEATTVSAYNGQGRLSSEVITQVRSLLNQGYRIGTEHADKRRFRTSSWQPCAPIQSTNERQVLSELENCLSEHEGEYVRLLGIDTNTRSRVFEALIQRPDGSVPESLGSQPVAVASGGGRQSSYASVSGNLSAEVVNKVRNLLAQGYRIGTEHADKRRFRTSSWQSCAPIQSSNERQVLAELENCLSEHEGEYVRLLGIDTASRSRVFEALIQDPQGPVGSAKAAAAPVSSATPSSHSYTSNGSSSSDVAGQVRGLLAQGYRISAEVADKRRFQTSSWQSLPALSGQSEATVLPALESILQEHKGKYVRLIGIDPAARRRVAELLIQKP
notes: as for B1
B3: SeM58-D249K (natural protein, Synechococcus elongatus PCC 7942, UniProt Q03513 1-539, looked up)
chain: MPSPTTVPVATAGRLAEPYIDPAAQVHAIASIIGDVRIAAGVRVAAGVSIRADEGAPFQVGKESILQEGAVIHGLEYGRVLGDDQADYSVWIGQRVAITHKALIHGPAYLGDDCFVGFRSTVFNARVGAGSVIMMHALVQDVEIPPGRYVPSGAIITTQQQADRLPEVRPEDREFARHIIGSPPVIVRSTPAATADFHSTPTPSPLRPSSSEATTVSAYNGQGRLSSEVITQVRSLLNQGYRIGTEHAKKRRFRTSSWQPCAPIQSTNERQVLSELENCLSEHEGEYVRLLGIDTNTRSRVFEALIQRPDGSVPESLGSQPVAVASGGGRQSSYASVSGNLSAEVVNKVRNLLAQGYRIGTEHADKRRFRTSSWQSCAPIQSSNERQVLAELENCLSEHEGEYVRLLGIDTASRSRVFEALIQDPQGPVGSAKAAAAPVSSATPSSHSYTSNGSSSSDVAGQVRGLLAQGYRISAEVADKRRFQTSSWQSLPALSGQSEATVLPALESILQEHKGKYVRLIGIDPAARRRVAELLIQKP
notes: CcmM (M58), Synechococcus elongatus PCC 7942, point mutant in SSUL1; source: E. coli BL21 (DE3), purified as wild-type M58; not shown: His6-ubiquitin, N-terminal, cleaved
B4: SeM58-E246K (natural protein, Synechococcus elongatus PCC 7942, UniProt Q03513 1-539, looked up)
chain: MPSPTTVPVATAGRLAEPYIDPAAQVHAIASIIGDVRIAAGVRVAAGVSIRADEGAPFQVGKESILQEGAVIHGLEYGRVLGDDQADYSVWIGQRVAITHKALIHGPAYLGDDCFVGFRSTVFNARVGAGSVIMMHALVQDVEIPPGRYVPSGAIITTQQQADRLPEVRPEDREFARHIIGSPPVIVRSTPAATADFHSTPTPSPLRPSSSEATTVSAYNGQGRLSSEVITQVRSLLNQGYRIGTKHADKRRFRTSSWQPCAPIQSTNERQVLSELENCLSEHEGEYVRLLGIDTNTRSRVFEALIQRPDGSVPESLGSQPVAVASGGGRQSSYASVSGNLSAEVVNKVRNLLAQGYRIGTEHADKRRFRTSSWQSCAPIQSSNERQVLAELENCLSEHEGEYVRLLGIDTASRSRVFEALIQDPQGPVGSAKAAAAPVSSATPSSHSYTSNGSSSSDVAGQVRGLLAQGYRISAEVADKRRFQTSSWQSLPALSGQSEATVLPALESILQEHKGKYVRLIGIDPAARRRVAELLIQKP
notes: as for B3
B5: SeM58-E76K (natural protein, Synechococcus elongatus PCC 7942, UniProt Q03513 1-539, looked up)
chain: MPSPTTVPVATAGRLAEPYIDPAAQVHAIASIIGDVRIAAGVRVAAGVSIRADEGAPFQVGKESILQEGAVIHGLKYGRVLGDDQADYSVWIGQRVAITHKALIHGPAYLGDDCFVGFRSTVFNARVGAGSVIMMHALVQDVEIPPGRYVPSGAIITTQQQADRLPEVRPEDREFARHIIGSPPVIVRSTPAATADFHSTPTPSPLRPSSSEATTVSAYNGQGRLSSEVITQVRSLLNQGYRIGTEHADKRRFRTSSWQPCAPIQSTNERQVLSELENCLSEHEGEYVRLLGIDTNTRSRVFEALIQRPDGSVPESLGSQPVAVASGGGRQSSYASVSGNLSAEVVNKVRNLLAQGYRIGTEHADKRRFRTSSWQSCAPIQSSNERQVLAELENCLSEHEGEYVRLLGIDTASRSRVFEALIQDPQGPVGSAKAAAAPVSSATPSSHSYTSNGSSSSDVAGQVRGLLAQGYRISAEVADKRRFQTSSWQSLPALSGQSEATVLPALESILQEHKGKYVRLIGIDPAARRRVAELLIQKP
notes: as for B1
B6: SeM58-R126D (natural protein, Synechococcus elongatus PCC 7942, UniProt Q03513 1-539, looked up)
chain: MPSPTTVPVATAGRLAEPYIDPAAQVHAIASIIGDVRIAAGVRVAAGVSIRADEGAPFQVGKESILQEGAVIHGLEYGRVLGDDQADYSVWIGQRVAITHKALIHGPAYLGDDCFVGFRSTVFNADVGAGSVIMMHALVQDVEIPPGRYVPSGAIITTQQQADRLPEVRPEDREFARHIIGSPPVIVRSTPAATADFHSTPTPSPLRPSSSEATTVSAYNGQGRLSSEVITQVRSLLNQGYRIGTEHADKRRFRTSSWQPCAPIQSTNERQVLSELENCLSEHEGEYVRLLGIDTNTRSRVFEALIQRPDGSVPESLGSQPVAVASGGGRQSSYASVSGNLSAEVVNKVRNLLAQGYRIGTEHADKRRFRTSSWQSCAPIQSSNERQVLAELENCLSEHEGEYVRLLGIDTASRSRVFEALIQDPQGPVGSAKAAAAPVSSATPSSHSYTSNGSSSSDVAGQVRGLLAQGYRISAEVADKRRFQTSSWQSLPALSGQSEATVLPALESILQEHKGKYVRLIGIDPAARRRVAELLIQKP
notes: as for B1
B7: SeM58-E286K (natural protein, Synechococcus elongatus PCC 7942, UniProt Q03513 1-539, looked up)
chain: MPSPTTVPVATAGRLAEPYIDPAAQVHAIASIIGDVRIAAGVRVAAGVSIRADEGAPFQVGKESILQEGAVIHGLEYGRVLGDDQADYSVWIGQRVAITHKALIHGPAYLGDDCFVGFRSTVFNARVGAGSVIMMHALVQDVEIPPGRYVPSGAIITTQQQADRLPEVRPEDREFARHIIGSPPVIVRSTPAATADFHSTPTPSPLRPSSSEATTVSAYNGQGRLSSEVITQVRSLLNQGYRIGTEHADKRRFRTSSWQPCAPIQSTNERQVLSELENCLSEHEGKYVRLLGIDTNTRSRVFEALIQRPDGSVPESLGSQPVAVASGGGRQSSYASVSGNLSAEVVNKVRNLLAQGYRIGTEHADKRRFRTSSWQSCAPIQSSNERQVLAELENCLSEHEGEYVRLLGIDTASRSRVFEALIQDPQGPVGSAKAAAAPVSSATPSSHSYTSNGSSSSDVAGQVRGLLAQGYRISAEVADKRRFQTSSWQSLPALSGQSEATVLPALESILQEHKGKYVRLIGIDPAARRRVAELLIQKP
notes: as for B3
B8: SeM58-D294K (natural protein, Synechococcus elongatus PCC 7942, UniProt Q03513 1-539, looked up)
chain: MPSPTTVPVATAGRLAEPYIDPAAQVHAIASIIGDVRIAAGVRVAAGVSIRADEGAPFQVGKESILQEGAVIHGLEYGRVLGDDQADYSVWIGQRVAITHKALIHGPAYLGDDCFVGFRSTVFNARVGAGSVIMMHALVQDVEIPPGRYVPSGAIITTQQQADRLPEVRPEDREFARHIIGSPPVIVRSTPAATADFHSTPTPSPLRPSSSEATTVSAYNGQGRLSSEVITQVRSLLNQGYRIGTEHADKRRFRTSSWQPCAPIQSTNERQVLSELENCLSEHEGEYVRLLGIKTNTRSRVFEALIQRPDGSVPESLGSQPVAVASGGGRQSSYASVSGNLSAEVVNKVRNLLAQGYRIGTEHADKRRFRTSSWQSCAPIQSSNERQVLAELENCLSEHEGEYVRLLGIDTASRSRVFEALIQDPQGPVGSAKAAAAPVSSATPSSHSYTSNGSSSSDVAGQVRGLLAQGYRISAEVADKRRFQTSSWQSLPALSGQSEATVLPALESILQEHKGKYVRLIGIDPAARRRVAELLIQKP
notes: as for B3
B9: SeM58-R79D (natural protein, Synechococcus elongatus PCC 7942, UniProt Q03513 1-539, looked up)
chain: MPSPTTVPVATAGRLAEPYIDPAAQVHAIASIIGDVRIAAGVRVAAGVSIRADEGAPFQVGKESILQEGAVIHGLEYGDVLGDDQADYSVWIGQRVAITHKALIHGPAYLGDDCFVGFRSTVFNARVGAGSVIMMHALVQDVEIPPGRYVPSGAIITTQQQADRLPEVRPEDREFARHIIGSPPVIVRSTPAATADFHSTPTPSPLRPSSSEATTVSAYNGQGRLSSEVITQVRSLLNQGYRIGTEHADKRRFRTSSWQPCAPIQSTNERQVLSELENCLSEHEGEYVRLLGIDTNTRSRVFEALIQRPDGSVPESLGSQPVAVASGGGRQSSYASVSGNLSAEVVNKVRNLLAQGYRIGTEHADKRRFRTSSWQSCAPIQSSNERQVLAELENCLSEHEGEYVRLLGIDTASRSRVFEALIQDPQGPVGSAKAAAAPVSSATPSSHSYTSNGSSSSDVAGQVRGLLAQGYRISAEVADKRRFQTSSWQSLPALSGQSEATVLPALESILQEHKGKYVRLIGIDPAARRRVAELLIQKP
notes: as for B1
B10: SeM58-R95D (natural protein, Synechococcus elongatus PCC 7942, UniProt Q03513 1-539, looked up)
chain: MPSPTTVPVATAGRLAEPYIDPAAQVHAIASIIGDVRIAAGVRVAAGVSIRADEGAPFQVGKESILQEGAVIHGLEYGRVLGDDQADYSVWIGQDVAITHKALIHGPAYLGDDCFVGFRSTVFNARVGAGSVIMMHALVQDVEIPPGRYVPSGAIITTQQQADRLPEVRPEDREFARHIIGSPPVIVRSTPAATADFHSTPTPSPLRPSSSEATTVSAYNGQGRLSSEVITQVRSLLNQGYRIGTEHADKRRFRTSSWQPCAPIQSTNERQVLSELENCLSEHEGEYVRLLGIDTNTRSRVFEALIQRPDGSVPESLGSQPVAVASGGGRQSSYASVSGNLSAEVVNKVRNLLAQGYRIGTEHADKRRFRTSSWQSCAPIQSSNERQVLAELENCLSEHEGEYVRLLGIDTASRSRVFEALIQDPQGPVGSAKAAAAPVSSATPSSHSYTSNGSSSSDVAGQVRGLLAQGYRISAEVADKRRFQTSSWQSLPALSGQSEATVLPALESILQEHKGKYVRLIGIDPAARRRVAELLIQKP
notes: as for B1

Biological target: the molecule itself
Test: SEC-MALS; 2 mg/ml protein; 50 mM Tris-HCl pH 8.0/150 mM KCl or 50 mM Tris-HCl pH 8.0/500 mM KCl/5 mM DTT; 25 °C; oligomeric state in solution

Stoichiometry N, 3:
B1, B2, B3, B4, B5, B6, B7, B8, B9, B10
